B1: Abscisic acid receptor PYR1 (Arabidopsis thaliana (Mouse-ear cress)), O49686 (parent)
chain: MPSELTPEERSELKNSIAEFHTYQLDPGSCSSLHAQRIHAPPELVWSIVRRFDKPQTYKHFIKSCSVEQNFEMRVGCTRDVIVISGLPANTSTERLDILDDERRVTGFSIIGGEHRLTNYKSVTTVHRFEKENRIWTVVLESYVVDMPEGNSEDDTRMFADTVVKLNLQKLATVAEAMARNSGDGSGSQVT

Variants of: B1
Conditions: with HAB1, Q9CAJ0
HAB1, Q9CAJ0, sequence (Q9CAJ0 whole entry): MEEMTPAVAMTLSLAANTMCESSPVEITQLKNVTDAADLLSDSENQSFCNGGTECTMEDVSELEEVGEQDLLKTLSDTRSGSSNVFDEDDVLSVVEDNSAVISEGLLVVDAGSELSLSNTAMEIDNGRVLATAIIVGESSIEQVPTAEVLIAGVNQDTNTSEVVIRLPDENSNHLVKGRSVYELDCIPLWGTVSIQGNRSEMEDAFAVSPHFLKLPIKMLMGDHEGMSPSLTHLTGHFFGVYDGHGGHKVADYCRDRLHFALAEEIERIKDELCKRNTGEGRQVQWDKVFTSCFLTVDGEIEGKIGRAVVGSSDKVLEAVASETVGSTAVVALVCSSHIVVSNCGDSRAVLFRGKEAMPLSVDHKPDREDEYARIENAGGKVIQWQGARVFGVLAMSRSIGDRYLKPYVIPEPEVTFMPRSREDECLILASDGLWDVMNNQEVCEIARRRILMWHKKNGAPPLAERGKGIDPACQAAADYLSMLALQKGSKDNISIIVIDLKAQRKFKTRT

Row | effect of a mutation on the interaction | Variant
1 | increasing interaction | H60P

Reference: IntAct's records for PubMed 21847091
